Source: the nanobody polyreactivity screen of Harvey et al. (2022)

Test: yeast display, Sf9 membrane polyspecificity reagent, FACS + sequencing; frameworks hold sequencing errors
Summary of the method: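 A synthetic nanobody library was expressed on Saccharomyces cerevisiae BJ5465 by galactose induction for 36–48 hours. The library was stained for 1 hour at 4 °C with 10% biotinylated, detergent-solubilized Sf9 membrane reagent and enriched with streptavidin microbeads before FACS. Low and high (top ~1%) gates were set on anti-HA fluorescence for expression and streptavidin fluorescence for reagent binding, and each polyreactivity label reflects the gate of origin.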

| Sequence | polyreactivity (PSR sort gate) |
| --- | --- |
| QVQLVESGAGLVQAGGSLRLSCAASGFTFRYYAMGWYRQAPGKERELVATISASSGSTYYADSVKGRFTISRDNAKNTVYLQMNSLKPEDTAVYYGAKEPLASGWGYDYWGQGTQVTVSS | high polyreactivity |
| QVQLVESGGGVVQAGGSLRLSCAASGRTFPLYAMGWYRQAPGKERELVAAIRTGGSTNYADSVKGRFTISRDNAKNTVYLQMNSLKPEDTAVYYCAAVQRTDRSAHYSWGQGTQVTVSS | low polyreactivity |
| QVQLVESGGGLFQAGGSLRLSCAASGSIFVGYAMGWYRQAPGKERELVAAITNSGGRTYYADSVKGRFTISRDNAKNTVYLQMNSLKPEDTAVYYCNRVTGKYRYWVGFEYWGQGTQVTVSS | high polyreactivity |
| QVQLVESGGGLVQAGGSLRLSCAASGITFNPYGMGWYRPAPGKERELVADITCGGITDYADCVKGRFTIARDNAKNTVYLHKNSLKPEETAVYYCATGDLFVYYWCYVVRLYDYWGQGTQVTVSS | low polyreactivity |
| QVQLVESGGGLVQAGGSLRLICAASGSIFDWYDMGWYRQAPGKERELVAAITTGGITNYADSVKGRFTFSRDNAKNSVYLQMNSLKPEDTAVYYCNADFSVEFDYWGQGTQVNVSS | low polyreactivity |
| QLQLVESGRGLVQAGGSLRLSCAASGSIFYSNAKGWYRQATGKERELVATITWSGGRTYYADSVKGRFTISRDNGKNSVYLQMNRLKPEDTAVDYCAVVDRHQPYGRQLDYWGQGTQVTVSS | low polyreactivity |
| QVQLVESGGGLVQAGGSLRLSCAASGSIFGDYAMGWYRQAPGKERELVAAISRADGTYYADSVKGRFTISRDNAKNTVYLQMNSLKPEDTAVYYCATDYGIRSYYYSWYYVFTADDYWGQGTQVTVSS | low polyreactivity |
| QVQLVESGGGLVQAGGSLRLSCAASGSTFGYNAMGCYRQAPGKERELVAAISRSGGRTYYADSVKGRFTISRDNAKNTVYLQMNSLIPEDTAVYYCATYYTNKVPARYYWGQGTQVTVSS | high polyreactivity |
| QVQLVESGGGLVQAGGSLRLSCAASGRTFGRNTMGWYRQAPGKERELVAAIDWSGGSTYYADSVKGRFTISRDNAKNTVYLQMNSLKPEDTAVYYCAAKTRWNFYYWGQGTQVTVSS | high polyreactivity |
| QVQLVESGGGLVQAGGSLRLSCAASGRTLRSYAMGWYRQAPGKERELVARISSGGSTTYADSVKGRFTISRDNAKNTVYLQMNSLKPEDTAVYYCNAQLVYTVYRLRYYHWGQGTQVTVSS | high polyreactivity |
| QVHLVESGGGLVQAGGTLRLRCAASGSIFCCNAMGWYRQAPGKERELVAAISTSGGTTYYADSVKGRFTISRDNAKNTVFLQMHSLKPEDTAVYYCAADVYSSRYLYDYWGHGTQVTVSS | low polyreactivity |
| QLQLVESGGGLVQAGGSLRLSFAASSIIPYNAMGWYRQAPVNEREFVAAISVRGVITYYADSVKGRFTISRDNAKNTVYLQMNSLKPEDTAVYDCAADYQPAGVDYWGQGTQVTVSS | low polyreactivity |
| QVQLVESGGGLVQAAGSLRLSCAASGFTFEKYVMGRYRQAPGKEREFVAAITRSGGRTYYADSVKGRFTISRDNAKNTVYLQMNSLKPEYTAVYYCAAAFSRSDTGGGSWGQGTQVTVSS | high polyreactivity |
| QVQLVESGRGLVQAGGSLRLSCAPSGFTFNVNAMGWYRQAPGKERELVAAISSSGTRTYYADSVKGRFTISRDNAKNTFYLQMNSLKPEDTAVYYCGASGQAYSGDRMYYWGQGTQVTVSS | high polyreactivity |
| QVQLVESGGGLVQAGGSLRLSCAASGNTFYANVMGWYRQAPGKERELVASITWSGGSTYYADSVKGRFTISRDNAKNTVYLQMNSLKPEDTAVYYCATSGDRLVWGQGTQVTVSS | low polyreactivity |
| QVQLVESGGGLVQAGGSLRLSCAASGSIFRRYAMGWYRQAPGKERELVAVITTDGSTYYADSVKGRFTISRDNAKNTVYLQMNSLKPEDTAVYYCAADVRHYIWEYYYWGQGTQVTVSS | low polyreactivity |
| QVQLVEPGGGLVQAGGSLRLSCAASGRIFRGYAMGWYRQAPGKVRELVAANSQSGSSTYYADSVKGRFTISRDNAKNTVYLKMNSLKPEDTAVYYCAVKYLKHFGYWGQGTQVTVSS | high polyreactivity |
| QVQLGESGGGLVPARGSLRLSRAASGSTFTTNAMGWYRQAPGKEREFVAAITSSGGSTYYADSVKGRFTISRDNAKNTVYLQMNSLNPEDTAVYYCIADGDPSQKLFGRSYDYWGQGTQVTVSS | low polyreactivity |
| QVQLVESGGGLVQAGGSLRLSCAASGRTSDEYAMGWYRPAPGKERELVAAITSGGSTNYADSVKGRFTISRDNAKNTVYLQMNSLKPEDTAVYYCAADNIRTWRPIYDYWGQGTQVTVSS | low polyreactivity |
| QVQLVESGGGLVQAGGSLRLSCAASGRTFLPNAMGWYRQAPGKERELVAVITSGGSTNYADSVKGRFTISRDNAKNTVYLQMNSLKPEDTAVYYCAARRWSSSQGHWGKSAGYGYLGQGTQVTVSS | low polyreactivity |
| QVQLVESGGGLVQAGGSLRLSCAASGRIFVYNAMGWYRQAPGKEREFVASINWSGSSTYADSVKGRFTISRDNAKNTVYLQMNSLKQEDTAVYYCAARRWRYEAYRSQYDYGYWGQGTQVTVSS | low polyreactivity |
| QVQLVESVGGLVQAGGSLRLSCAASGRIFYVYVMGWYRPAPGKERELVAAISKRGDNTYYSDSVKGRFTISRDNAKNTVYLQMNSLKPEDTAVYYCNVKRYCGRSDYWGQGTQVTVSS | high polyreactivity |

| Sequence | polyreactivity (PSR sort gate) |
| --- | --- |
| QVQRVESGGGLVQAGGTLRLSCAASGRIFWYNAMGWSRQAPGKERELVAVISTRGGRTYYADSVKGRFTISRDNAKNTVYLQMNSLKPEDTAVYYCAAEFLNKAVGGVTSIYDSWGQGTQVTVSS | low polyreactivity |
| QVQLQESGGGLVQVGGSQSLICAASGNIFYNYAMGWYRHAQGKEREFDATINHGTSINYADSVKGRFTISRDNAKNTVYLQMNSLKPEDTAVYYCAADLSRTDNLFYWGQGTQVTVSS | low polyreactivity |
| QVQLVESGGGLVQAGGSLRLSCAASGRIFDLYTMGWYRQAPGKERELVAAISSSGGSTYYADSVKGRFTISRDNARNTVYLQMNSLKPEDTAVYYCNADWYYAGYGYWGQGTQVTVSS | low polyreactivity |
| HVQLVDSGGVLVQAGGSLRLSCAASGSIYDANAMGRYRQAPGKERELVAAISSSGGITYYADSVKGRFTISRDNAKNTVYLQMNSLKPEDTAVYYCVAEYGYIDYSYLFWSDYWGQGTQVTVSS | high polyreactivity |
| QVQLVESGGGLVQAGGSLRLSCAASGSISPYYAMGWYRQEHGKEREMVAAISSGGSTYYADSVKGRFTISRDNAKNTVYLQMNSLKPEDTAVYYCAKAYNYLGYYKYLRYGKFCYWGEGTQVTVSS | high polyreactivity |
| QVQLLESGGGLVQAGASLRLSCAASGSTFSYYAMGWYRQAPGKERELDAAISWRGSSTYYADSVKRRITISRDNANNTVYLQMNSLTPEATAVYYCAAGYPGRVSGYLYGTRATYYYWGQGTQVTVSS | high polyreactivity |
| QVQLVESGGGLVQAGGSLRLSCAASGRTFYAYAMGWSRQAPGKERELVAAISWRGGDTYYADSVKGRFTISRDNAKNTVYLQMNSLKPEDTAVYYCAKYLSRQSGDGEYDYWGQGTQVTVSS | low polyreactivity |
| QVQLVESGGGLVQAGGSLRLSCAASGFIFKFNAMGWYRQAPGKERELVAAINYSAGSTYYADSVKGRFTISRDNAKNTVYLKMNSLKPEDTAVYYCNALYTYGWYSDDYWGQGTQVTVSS | high polyreactivity |
| QVQLVESGGGLVQAGGSLRLSCAASGSIFTTYAMGWYRQAPGKERELVAAISSTSGSTYYADSVKGRFTISRDNAKNTVYLQMNSLKPEDTAVYYCAARGGYWGQGTQVTVSS | low polyreactivity |
| QVQLVESGGGLVQAGGSLRLSCAASGRTFTVYGMGWYRQAPGKEREFVATISRRGGRTYYADSVKGRFTISRDNAKNTVYLHMNSLKPEDTAVYYCNADIGTYVRSGGGDFWGQGTQVTVSS | low polyreactivity |
| QVQLVESGGGLVQAGGRLRLSCAASGITFSGYVLGWDRPAPGKERELVAAISSSGGRTYYADSVKGRFTISRDNAKNTVYLQMNSLKPEDTAVYYCAARFLYANRYSVDYDYWGQGTQVTVSS | high polyreactivity |
| QVHLVESGGGLFQAGGSLRLSCAASGRTFYYYGMGWYRQAPGKERELVASITNGGNTNYADSVKGRFTISRDNAKNTVYLQMNSLKPEDTAVYYCANDVPYWRPVVRYDYWGQGTQVTVSS | low polyreactivity |
| QVQLVESGGGLVQAGGSLRLSCAASGIIFRLYGMGWYIQAPGKEREFVATITWRGGRTNYADSVKGRFTISRDNAKNTVYLQMNSLKPEDTAVYYCAAGSAPSYWGGWYYERDYWGQGTQVTVSS | low polyreactivity |
| QVQLQESGGGLVQAGGSLRLSCAASGIIFDNPNMGWYRQAPGKERELVATINSGATTNYADSVKGRFTISRDNAKNTVYLQMNSLIPEDTAVYYCAVDLSPTYFYYWGQGTQVTVSS | high polyreactivity |
| QVQLVESAGGLVQAGGSLRLSSGASGSTFNTYAMGWYRQAPGKERELVAAITYNGGSTYYADSVKGRFTISRDNAKNTVYLQMNSLKPEDTAVYYCAAPRSRSRTSRFEYWGQGTQVTVSS | high polyreactivity |
| QVQLVESGGGLVQAGGSLRLSCAASGSTFGENAMGWYRQAPGKERELVAGINSTGGSTYYADSVKGRFTISRDHAKNNVYLQMNSLNPEDTAVYYCAAGDWYSGNTSHFYYWGQGTQVTVSS | low polyreactivity |
| QVQLVESGGGLVQAGGSLRFSCAASGSIIFDGNAMAWSRQAPGKEREMVADITTSDGRTYYADSVKGRFTISRDSAKNTVYFQMNSLKPEDTAVYDCAKPNGYHGGRYDYWGQGSQVTVSS | low polyreactivity |
| QVQLVESGGGLVQAGGSLRLTCAASGRTFRLYAMGWYRQAPGKERELVAAITRGGRTNYADSVKGRFTISRDNAKNTVYLQMNSLKPEDTAVYYCAARYVDRHTDYYYWGQGTQVTVSS | low polyreactivity |
| QVQLVESGGGLVQAGGSLRLSCAASGIIFKTYAMGWYRQAPGKERELVAGIDYSGGGTSYADSVKGRFTISRDNAKNTVYLQMNSLKPEDTAVYYCAADAYSGAYFTYLGEIYDYWGQGTQVTVSS | low polyreactivity |
| QVQLVETGGGLVQAGGSLRLSCAASGRTFYQYAMGWYRQAPGKERELVAGITFRGGSTNYADSVKGRFTISRDNAKNTVYLQMNSLKPEDTAVYYCAATVYGTVYKGRSQYEYGYWGQGTQVTVSS | high polyreactivity |
| QVQLVDSGGGLVQAGGSLRLSCAASGSTFKIYAMGWYRQAPGKERELVARITGRGGSTYYADSVKGRFTISRDNAKNTVYLQMNSLKPEDTAVYYCAAAKRYYSEMYWGQGTQVTVSS | high polyreactivity |
